From patent US20180355064A1 (published 2018)

Assays:
[1] = biological target: human CD3 epsilon 1-26_Fc fusion protein; assay: SPR
[2] = biological target: cynomolgus monkey CD3 epsilon 1-26_Fc fusion protein; assay: SPR

Kd [1] [nM] | Kd [2] [nM] | Binder
0.4 | 1 | humanized 9G7 best-framework antibody (antibody, V domains shown) VH: EVQLVESGGGLVQPGGSLRLSCAFSGLSLSTSGKGVGWIRQAPGKGLEWLAHIWWDDDKRYNPALKSRLTISKDTSKNTVYLQMNSLRAEDTAVYYCARIELGRSYVMDYWGQGTLVTVSS VL: DIQMTQSPSSLSASVGDRVTITCRASQDVITSVAWFQQKPGKAPKLLIYSASYRYTGVPSRFSGSGSGTDFTLTISSLQPEDFATYYCQQHYTIPLTFGQGTKVEIKR
0.5 | 3.2 | humanized 9G7 best-fit antibody (antibody, V domains shown) VH: QVTLKESGPTLVKPTQTLTLTCTFSGLSLSTSGKGVGWIRQPPGKALEWLAHIWWDDDKRYNPALKSRLTITKDTSKNQVVLTMTNMDPVDTATYYCARIELGRSYVMDYWGQGTLVTVSS VL: DIQMTQSPSSLSASVGDRVTITCQASQDVITSVAWYQQKPGKAPKLLIYSASYRYTGVPSRFSGSGSGTDFTFTISSLQPEDIATYYCQQHYTIPLTFGQGTKLEIKR
0.4 | 1 | chimeric 9G7 antibody (antibody, V domains shown) VH: QVTLKESGPGILQPSQTLSLTCSFSGLSLSTSGKGVGWIRQPSGKGLEWLAHIWWDDDKRYNPALKSRLTISKDTSSNQVFLKIASVDTADTATYYCARIELGRSYVMDYWGQGTTVTVSS VL: DIVMTQSHKFMSTSVGDRVSISCKASQDVITSVAWFQQKPGQSPKLLIYSASYRYTGVPDRFTGSGSGTDFTFTISSVQAEDLAVYYCQQHYTIPLTFGAGTKLELKR
